Data as given in US20220195043A1 (BEIJING MABWORKS BIOTECH, published 2022).
Where a chain is given by its changes, count along the chain named. Like-named read-outs stand apart in the source and are kept apart here.

Legend:
[1] = molecular target: T1, human CD3ε-his (Cat #:10977-H08s, SinoBiological, China) (human, UniProt P07766 23-126); test: ELISA: plate coated with human CD3ε-his (hCD3ε-his), antibody titrated, HRP goat anti-human IgG, OD450
T1 construct: Bought protein; also called human CD3ε protein; recombinant human CD3ε; not shown: his tag

[2] = molecular target: T2, human CD20 (HEK293A/human CD20 cells) (human, UniProt P11836 1-297); test: FACS on HEK293A/human CD20 cells, PE anti-human IgG secondary antibody, MFI
T2 construct: Stably expressed on HEK293A cells; also called hCD20; HEK293A/hCD20
T2 sequence: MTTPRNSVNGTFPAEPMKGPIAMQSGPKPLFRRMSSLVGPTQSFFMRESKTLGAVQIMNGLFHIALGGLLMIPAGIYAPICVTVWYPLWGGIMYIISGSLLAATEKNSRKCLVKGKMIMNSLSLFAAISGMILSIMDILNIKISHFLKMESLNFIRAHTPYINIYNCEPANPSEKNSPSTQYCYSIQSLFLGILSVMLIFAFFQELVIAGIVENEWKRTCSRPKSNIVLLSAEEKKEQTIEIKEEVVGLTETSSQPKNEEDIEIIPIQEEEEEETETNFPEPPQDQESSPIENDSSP

[3] = molecular target: T1, human CD3ε-his (Cat #:10977-H08s, …); test: SPR (BIAcore 8K); human CD3ε-his coupled to CM5 chip, antibody injected
[4] = molecular target: T2, human CD20 (HEK293A/human CD20 cells); test: cell-based or functional assay
[5] = molecular target: T3, monkey CD20 (HEK293A/monkey CD20 cells) (monkey, UniProt P11836 1-297 (human entry)); test: FACS on HEK293A/monkey CD20 (CynoCD20) cells, PE anti-human IgG secondary antibody, MFI
T3 construct: Stably expressed on HEK293A cells; also called cynomolgus CD20
T3 chain: T2 sequence with S25P, F31L, T51A, A157V, N166Y, K217R, N226S, I227V, T239V

[6] = molecular target: T1, human CD3ε-his (Cat #:10977-H08s, …); test: ELISA: plate coated with human CD3ε-his, antibody titrated, HRP goat anti-human IgG, OD450
[7] = molecular target: T1, human CD3ε-his (Cat #:10977-H08s, …); test: ELISA: plate coated with human CD3ε-his, antibody titrated, HRP goat anti-human IgG, OD 450
[8] = molecular target: T4, monkey CD3ε-his (Cat #: 90047-C08H, SinoBiological, China) (monkey, UniProt Q95LI5 22-117); test: ELISA: plate coated with monkey CD3ε-his, antibody titrated, HRP goat anti-human IgG, OD 450
T4 construct: Bought protein; also called monkey CD3ε protein; recombinant monkey CD3ε
T4 sequence: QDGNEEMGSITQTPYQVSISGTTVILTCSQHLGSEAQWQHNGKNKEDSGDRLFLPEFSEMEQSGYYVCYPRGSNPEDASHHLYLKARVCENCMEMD

[9] = molecular target: T5, human TCR/CD3 complex on cell surfaces (primary human CD4+ T cells; Jurkat cells; human PBMCs) (human, UniProt P07766 23-207); test: FACS on primary human T cells, PE goat anti-human IgG, MFI
T5 construct: whole, on cells; Native complex on cells; the γ, δ, ζ and TCR chains of the complex are present on the cells too; also called human CD3 complexes on cell surfaces; human CD3+ T cells

[10] = molecular target: T1, human CD3ε-his (Cat #:10977-H08s, …); test: SPR (BIAcore 8K); human CD3ε-his coupled to CM5 chip, antibody injected; remark: listed apart in the source
[11] = molecular target: T4, monkey CD3ε-his (Cat #: 90047-C08H, …); test: ELISA: plate coated with monkey CD3ε-his, antibody titrated, HRP goat anti-human IgG, OD450
[12] = molecular target: T1, human CD3ε-his (Cat #:10977-H08s, …); test: ELISA: plate coated with human CD3ε-his, antibody titrated, HRP goat anti-human IgG, OD 450; remark: listed apart in the source
[13] = molecular target: T5, human TCR/CD3 complex on cell surfaces …; test: FACS on primary human T cells, PE goat anti-human IgG, MFI; remark: listed apart in the source
[14] = molecular target: T4, monkey CD3ε-his (Cat #: 90047-C08H, …); test: ELISA: plate coated with monkey CD3ε-his, antibody titrated, HRP goat anti-human IgG, OD 450; remark: listed apart in the source
[15] = molecular target: T5, human TCR/CD3 complex on cell surfaces …; test: FACS on primary human T cells, PE goat anti-human IgG, MFI; remark: listed apart in the source

T1 sequence (P07766 23-126 limits assumed): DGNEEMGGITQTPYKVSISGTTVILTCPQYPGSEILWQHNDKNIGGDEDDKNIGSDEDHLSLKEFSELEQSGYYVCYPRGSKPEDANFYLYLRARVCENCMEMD
T5 sequence (P07766 23-207, one chain of several): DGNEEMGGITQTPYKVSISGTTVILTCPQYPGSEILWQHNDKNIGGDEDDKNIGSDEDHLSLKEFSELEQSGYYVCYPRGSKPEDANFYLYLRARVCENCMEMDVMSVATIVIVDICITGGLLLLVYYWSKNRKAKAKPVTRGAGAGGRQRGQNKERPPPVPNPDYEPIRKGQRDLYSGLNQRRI

B1: MBS303-1 (bispecific antibody against CD3 and CD20, MIL220 + MIL221-1) (bispecific antibody, human IgG1, kappa, lambda, L234A L235A, N297A)
heavy 1: QVQLVQSGAEVKKPGSSVKVSCKASGYAFSYSWINWVRQAPGQGLEWMGRIFPGDGDTDYNGKFKGRVTITADKSTSTAYMELSSLRSEDTAVYYCARNVFDGYWLVYWGQGTLVTVSSASTKGPSVFPLAPSSKSTSGGTAALGCLVKDYFPEPVTVSWNSGALTSGVHTFPAVLQSSGLYSLSSVVTVPSSSLGTQTYICNVNHKPSNTKVDKKVEPKSCDKTHTCPPCPAPEAAGGPSVFLFPPKPKDTLMISRTPEVTCVVVDVSHEDPEVKFNWYVDGVEVHNAKTKPREEQYASTYRVVSVLTVLHQDWLNGKEYKCKVSNKALPAPIEKTISKAKGQPREPQVYTLPPSREEMTKNQVSLSCAVKGFYPSDIAVEWESNGQPENNYKTTPPVLDSDGSFFLVSKLTVDKSRWQQGNVFSCSVMHEALHNHYTQKSLSLSPGK
light 1: DIVMTQTPLSLPVTPGEPASISCRSSKSLLHSNGITYLYWYLQKPGQSPQLLIYQMSNLVSGVPDRFSGSGSGTDFTLKISRVEAEDVGVYYCAQNLELPYTFGGGTKVEIKRTVAAPSVFIFPPSDEQLKSGTASVVCLLNNFYPREAKVQWKVDNALQSGNSQESVTEQDSKDSTYSLSSTLTLSKADYEKHKVYACEVTHQGLSSPVTKSFNRGEC
heavy 2: QVQLVQSGAEVKKPGSSVKVSCKASGYAFSYSWINWVRQAPGQGLEWMGRIFPGDGDTDYNGKFKGRVTITADKSTSTAYMELSSLRSEDTAVYYCARNVFDGYWLVYWGQGTLVTVSSGGGGSGGGGSGGGGSDIVMTQTPLSLPVTPGEPASISCRSSKSLLHSNGITYLYWYLQKPGQSPQLLIYQMSNLVSGVPDRFSGSGSGTDFTLKISRVEAEDVGVYYCAQNLELPYTFGGGTKVEIKGGGGSGGGGSGGGGSEVQLLESGGGLVQPGGSLRLSCAASGFTFNTYAMNWVRQAPGKGLEWVARIRSKYNNYATYYAISVKDRFTISRDNSKNTLYLQMNSLRAEDTAVYYCVKHGNFGNSYLSYWAYWGQGTLVTVSSASTKGPSVFPLAPSSKSTSGGTAALGCLVKDYFPEPVTVSWNSGALTSGVHTFPAVLQSSGLYSLSSVVTVPSSSLGTQTYICNVNHKPSNTKVDKKVEPKSCDKTHTCPPCPAPEAAGGPSVFLFPPKPKDTLMISRTPEVTCVVVDVSHEDPEVKFNWYVDGVEVHNAKTKPREEQYASTYRVVSVLTVLHQDWLNGKEYKCKVSNKALPAPIEKTISKAKGQPREPQVYTLPPSREEMTKNQVSLWCLVKGFYPSDIAVEWESNGQPENNYKTTPPVLDSDGSFFLYSKLTVDKSRWQQGNVFSCSVMHEALHNHYTQKSLSLSPGK
light 2: QAVVTQEPSLTVSPGGTVTLTCQSSTGAVTTNNYANWVQQKPGHAFRGLIGGTKQRAPGVPARFSGSLLGGKAALTLSGVQPEDEAEYYCVLWYSNLWVFGGGTKLTVLGQPKAAPSVTLFPPSSEELQANKATLVCLISDFYPGAVTVAWKADSSPVKAGVETTTPSKQSNNKYAASSYLSLTPEQWKSHRSYSCQVTHEGSTVEKTVAPT
notes: CD20:CD3 = 2:1
- EC50 (read off the curve) [1]: ~0.06 mg/L
- EC50 (read off the curve) [2]: ~0.04 mg/L
- Kd [3]: 1.99 nM
- EC50 of killing of HEK293A/hCD20 cells by T cells, MBS303-1 alone [4]: 0.0076 mg/L
- EC50 of killing of HEK293A/hCD20 cells by T cells, MBS303-1 with 1 µg/ml MIL62 [4]: 0.0032 mg/L
- binding result [5]: binds

B2: chimeric antibody 19-15 (full length, human IgG1) (antibody, V domains shown)
VH: EVKLLESGGGLVQPKGSLKLSCAASGFTFNTYAMNWVRQAPGKGLEWVARIRSKYNNYATYYAISVKDRFTISRDDSQSILYLQMNNLKTEDTAMYYCVRHGNFGNSYLSYWAYWGQGTLVTVSA
VL: QAVVTQESALTTSPGETVTLTCQSSTGAVTTNNYANWVQEKPDHLFTGLIGGTKQRAPGVPARFSGSLIGDKAALTITGAQTEDEAIYFCVLWYSNLWVFGGGTKLTVLG
- EC50 (read off the curve) [6]: ~60 mg/L
- EC50 (read off the curve) [7]: ~0.05 mg/L
- EC50 (read off the curve) [8]: ~0.04 mg/L
- EC50 (read off the curve) [9]: ~200 mg/L
- kon [10]: 229000 M⁻¹ s⁻¹
- EC50 (read off the curve) [11]: ~60 mg/L

B3: humanized anti-CD3 antibody 26H2L3 (human IgG1) (antibody, V domains shown)
VH: EVQLLESGGGLVQPGGSLRLSCAASGFTFNTYAMNWVRQAPGKGLEWVARIRSKYNNYATYYADSVKDRFTISRDNSKNTLYLQMNSLRAEDTAVYYCVKHGNFGNSYISWWAYWGQGTLVTVSS
VL: QAVVTQEPSLTVSPGGTVTLTCKSSTGAVTTSNYANWVQQKPGHAFRGLIGGTNLHAPGVPARFSGSLLGGKAALTLSGVQPEDEAEYYCALWYSNLWVFGGGTKLTVLG
- EC50 (read off the curve) [12]: ~0.1 mg/L
- EC50 (read off the curve) [13]: ~0.1 mg/L
- EC50 (read off the curve) [14]: ~0.1 mg/L

B4: humanized anti-CD3 antibody 15H3L2 (human IgG1) (antibody, V domains shown)
VH: B3 VH with D64I, N76D, V95M, K100R, I109L, W111Y
VL: QTVVTQEPSLTVSPGGTVTLTCQSSTGAVTTNNYANWVQQKPGQAPRALIGGTKQRAPGTPARFSGSLLGGKAALTLSGVQPEDEAEYYCVLWYSNLWVFGGGTKLTVLG
- EC50 (read off the curve) [6]: ~100 mg/L
- EC50 (read off the curve) [15]: ~0.2 mg/L
- EC50 (read off the curve) [11]: ~100 mg/L

B5: chimeric antibody 19-26 (full length, human IgG1) (antibody, V domains shown)
VH: B2 VH with I64D, L109I, Y111W
VL: B2 VL with Q23K, N32S, K54N, Q55L, R56H, V91A
- EC50 (read off the curve) [12]: ~0.1 mg/L
- EC50 (read off the curve) [13]: ~0.2 mg/L
- EC50 (read off the curve) [7]: ~0.05 mg/L
- EC50 (read off the curve) [14]: ~0.1 mg/L
- EC50 (read off the curve) [9]: ~700 mg/L

B6: humanized anti-CD3 antibody 15H3L3 (human IgG1, light constant region SEQ ID NO: 23) (antibody)
heavy: not shown
light: QAVVTQEPSLTVSPGGTVTLTCQSSTGAVTTNNYANWVQQKPGHAFRGLIGGTKQRAPGVPARFSGSLLGGKAALTLSGVQPEDEAEYYCVLWYSNLWVFGGGTKLTVLGQPKAAPSVTLFPPSSEELQANKATLVCLISDFYPGAVTVAWKADSSPVKAGVETTTPSKQSNNKYAASSYLSLTPEQWKSHRSYSCQVTHEGSTVEKTVAPTECS
- EC50 (read off the curve) [6]: ~300 mg/L
- EC50 (read off the curve) [15]: ~0.2 mg/L
- EC50 (read off the curve) [11]: ~300 mg/L

B7: mAB2 (anti-CD3 antibody of Macrogenics, positive control) (antibody, V domains shown)
VH: B3 VH with L5V, R19K, N76D, L81A, R89K, A90T, K100R, N106D, I109V, W112F
VL: QTVVTQEPSLTVSPGGTVTLTCRSSTGAVTTSNYANWVQQKPGQAPRGLIGGTNKRAPGTPARFSGSLLGGKAALTLSGVQPEDEAEYYCALWYSNLWVFGGGTKLTVL
- Kd [10]: 0.154 nM
